Test results taken from US9580733B2, “Methods of producing 6-carbon chemicals via methyl-ester shielded carbon chain elongation” (INVISTA North America S.á r.l., priority 2012, dated 2017).

Columns and labels:
Format in all cases: biochemical
[1] = Pimeloyl-[acp] methyl ester methylesterase activity assay, adipyl-CoA methyl ester to adipyl-CoA; settings: 10 μM enzyme, 5 mM adipyl-CoA methyl ester, pH 7.0, 30° C., 1 h, FIG. 20
Description: A sequence encoding an C-terminal His-tag was added to the gene from Escherichia coli encoding the pimeloyl-[acp] methyl ester methylesterase of SEQ ID NO: 17 (see FIG. 7G) such that C-terminal HIS tagged pimeloyl-[acp] methyl ester methylesterase could be produced. The resulting modified gene was cloned into a pET28b+ expression vector under control of the T7 promoter and the expression vector was transformed into a BL21[DE3] E. coli host. The resulting recombinant E. coli strain was cultivated at 37° C. in a 500 mL shake flask culture containing 100 mL LB media and antibiotic selection pressure, with shaking at 230 rpm. Each culture was induced overnight at 18° C. using 0.3 mM IPTG.
The pellet from each induced shake flask culture was harvested via centrifugation. Each pellet was resuspended and lysed via sonication. The cell debris was separated from the supernatant via centrifugation. The pimeloyl-[acp] methyl ester methylesterase was purified from the supernatant using Ni-affinity chromatography, buffer exchanged and concentrated into 20 mM HEPES buffer (pH=7.5) via ultrafiltration and stored at 4° C.
Enzyme activity assays converting adipyl-CoA methyl ester to adipyl-CoA were performed in triplicate in a buffer composed of a final concentration of 25 mM Tris.HCl buffer (pH=7.0) and 5 [mM] adipyl-CoA methyl ester. […] The formation of adipyl-CoA was quantified via LC-MS.

[2] = Carboxylate reductase activity assay, adipate to adipate semialdehyde; settings: enhanced by gene product of sfp, 2 mM adipate, room temperature, 20 min, vs empty vector control, FIG. 10
Description: A nucleotide sequence encoding a HIS-tag was added to the genes from Segniliparus rugosus and Segniliparus rotundus that encode the carboxylate reductases of SEQ ID NOs: 5 and 7, respectively (see FIGS. 7C and 7E), such that N-terminal HIS tagged carboxylate reductases could be produced. Each of the modified genes was cloned into a pET Duet expression vector along with a sfp gene encoding a HIS-tagged phosphopantetheine transferase from Bacillus subtilis, both under the T7 promoter. Each expression vector was transformed into a BL21[DE3] E. coli host and the resulting recombinant E. coli strains were cultivated at 37° C. in a 250 mL shake flask culture containing 50 mL LB media and antibiotic selection pressure, with shaking at 230 rpm. Each culture was induced overnight at 37° C. using an auto-induction media.
The pellet from each induced shake flask culture was harvested via centrifugation. Each pellet was resuspended and lysed via sonication, and the cell debris was separated from the supernatant via centrifugation. […]
Enzyme activity assays (i.e., from adipate to adipate semialdehyde) were performed in triplicate in a buffer composed of a final concentration of 50 mM HEPES buffer (pH=7.5), 2 mM adipate, 10 mM MgCl2, 1 mM ATP and 1 mM NADPH. […] The consumption of NADPH was monitored by absorbance at 340 nm.

[3] = ω-transaminase activity assay, reverse direction, 6-aminohexanoate to adipate semialdehyde; settings: cell free extract, 10 mM 6-aminohexanoate, 10 mM pyruvate, 25° C., 24 h, vs empty vector control, FIG. 15
Description: (§1) A nucleotide sequence encoding a His-tag was added to the genes from Chromobacterium violaceum, Pseudomonas aeruginosa, Pseudomonas syringae, Rhodobacter sphaeroides, and Vibrio fluvialis encoding the ω-transaminases of SEQ ID NOs: 7, 8, 9, 10 and 12, respectively (see FIGS. 7E and 7F) such that N-terminal HIS tagged ω-transaminases could be produced. Each of the resulting modified genes was cloned into a pET21a expression vector under control of the T7 promoter and each expression vector was transformed into a BL21[DE3] E. coli host. The resulting recombinant E. coli strains were cultivated at 37° C. in a 250 mL shake flask culture containing 50 mL LB media and antibiotic selection pressure, with shaking at 230 rpm. Each culture was induced overnight at 16° C. using 1 mM IPTG.
(§2) The pellet from each induced shake flask culture was harvested via centrifugation. Each pellet was resuspended and lysed via sonication. The cell debris was separated from the supernatant via centrifugation and the cell free extract was used immediately in enzyme activity assays.
Enzyme activity assays in the reverse direction (i.e., 6-aminohexanoate to adipate semialdehyde) were performed in a buffer composed of a final concentration of 50 mM HEPES buffer (pH=7.5), 10 mM 6-aminohexanoate, 10 mM pyruvate and 100 μM pyridoxyl 5′ phosphate. Each enzyme activity assay reaction was initiated by adding cell free extract of the ω-transaminase gene product or the empty vector control to the assay buffer containing the 6-aminohexanoate and incubated at 25° C. for 24 h, with shaking at 250 rpm. The formation of L-alanine from pyruvate was quantified via RP-HPLC.

[4] = ω-transaminase activity assay, forward direction, adipate semialdehyde to 6-aminohexanoate; settings: cell free extract, 10 mM adipate semialdehyde, 10 mM L-alanine, 25° C., 4 h, vs empty vector control, FIG. 16
Description: as §1, §2
Enzyme activity in the forward direction (i.e., adipate semialdehyde to 6-aminohexanoate) was confirmed for the transaminases of SEQ ID NO 7, SEQ ID NO 8, SEQ ID NO 9, SEQ ID NO 10 and SEQ ID NO 12. Enzyme activity assays were performed in a buffer composed of a final concentration of 50 mM HEPES buffer (pH=7.5), 10 mM adipate semialdehyde, 10 mM L-alanine and 100 μM pyridoxyl 5′ phosphate. Each enzyme activity assay reaction was initiated by adding a cell free extract of the ω-transaminase gene product or the empty vector control to the assay buffer containing the adipate semialdehyde and incubated at 25° C. for 4 h, with shaking at 250 rpm. The formation of pyruvate was quantified via RP-HPLC.

[5] = Carboxylate reductase activity assay, adipate semialdehyde to hexanedial; settings: enhanced by gene product of sfp, 2 mM adipate semialdehyde, room temperature, 20 min, vs empty vector control, FIG. 13
Description: The N-terminal His-tagged carboxylate reductase of SEQ ID NO 7 (see Example 4 and FIG. 7E) was assayed using adipate semialdehyde as substrate. The enzyme activity assay was performed in triplicate in a buffer composed of a final concentration of 50 mM HEPES buffer (pH=7.5), 2 mM adipate semialdehyde, 10 mM MgCl2, 1 mM ATP and 1 mM NADPH. The enzyme activity assay reaction was initiated by adding purified carboxylate reductase and phosphopantetheine transferase or the empty vector control to the assay buffer containing the adipate semialdehyde and then incubated at room temperature for 20 min. The consumption of NADPH was monitored by absorbance at 340 nm.

| Molecule | conversion of adipyl-CoA methyl ester to adipyl-CoA by pimeloyl-[acp] methyl ester methylesterase (LC-MS) [1] | carboxylate reductase activity for converting adipate to adipate semialdehyde (consumption of NADPH, absorbance at 340 nm) [2] | ω-transaminase activity for converting 6-aminohexanoate to adipate semialdehyde (formation of L-alanine from pyruvate, RP-HPLC) [3] | ω-transaminase activity for converting adipate semialdehyde to 6-aminohexanoate (formation of pyruvate, RP-HPLC) [4] | carboxylate reductase activity for converting adipate semialdehyde to hexanedial (consumption of NADPH, absorbance at 340 nm) [5] |
| --- | --- | --- | --- | --- | --- |
| SEQ ID NO. 17: Escherichia coli pimeloyl-[acp] methyl ester esterase (GenBank Accession No. AAC76437.1), C-terminal His-tagged (protein, listed as Escherichia coli, C-terminal His tag) MNNIWWQTKGQGNVHLVLLHGWGLNAEVWRCIDEELSSHFTLHLVDLPGFGRSRGFGALSLADMAEAVLQQAPDKAIWLGWSLGGLVASQIALTHPERVQALVTVASSPCFSARDEWPGIKPDVLAGFQQQLSDDFQRTVERFLALQTMGTETARQDARALKKTVLALPMPEVDVLNGGLEILKTVDLRQPLQNVSMPFLRLYGYLDGLVPRKVVPMLDKLWPHSESYIFAKAAHAPFISHPAEFCHLLVALKQRV | accepted adipyl-CoA methyl ester as substrate | – | – | – | – |
| SEQ ID NO 5: Segniliparus rugosus carboxylate reductase (Genbank Accession No. EFV11917.1) (protein, listed as Segniliparus rugosus) MGDGEERAKRFFQRIGELSATDPQFAAAAPDPAVVEAVSDPSLSFTRYLDTLMRGYAERPALAHRVGAGYETISYGELWARVGAIAAAWQADGLAPGDFVATVGFTSPDYVAVDLAAARSGLVSVPLQAGASLAQLVGILEETEPKVLAASASSLEGAVACALAAPSVQRLVVFDLRGPDASESAADERRGALADAEEQLARAGRAVVVETLADLAARGEALPEAPLFEPAEGEDPLALLIYTSGSTGAPKGAMYSQRLVSQLWGRTPVVPGMPNISLHYMPLSHSYGRAVLAGALSAGGTAHFTANSDLSTLFEDIALARPTFLALVPRVCEMLFQESQRGQDVAELRERVLGGRLLVAVCGSAPLSPEMRAFMEEVLGFPLLDGYGSTEALGVMRNGIIQRPPVIDYKLVDVPELGYRTTDKPYPRGELCIRSTSLISGYYKRPEITAEVFDAQGYYKTGDVMAEIAPDHLVYVDRSKNVLKLSQGEFVAVAKLEAAYGTSPYVKQIFVYGNSERSFLLAVVVPNAEVLGARDQEEAKPLIAASLQKIAKEAGLQSYEVPRDFLIETEPFTTQNGLLSEVGKLLRPKLKARYGEALEARYDEIAHGQADELRALRDGAGQRPVVETVVRAAVAISGSEGAEVGPEANFADLGGDSLSALSLANLLHDVFEVEVPVRIIIGPTASLAGIAKHIEAERAGASAPTAASVHGAGATRIRASELTLEKFLPEDLLAAAKGLPAADQVRTVLLTGANGWLGRFLALEQLERLARSGQDGGKLICLVRGKDAAAARRRIEETLGTDPALAARFAELAEGRLEVVPGDVGEPKFGLDDAAWDRLAEEVDVIVHPAALVNHVLPYHQLFGPNVVGTAEIIRLAITAKRKPVTYLSTVAVAAGVEPSSFEEDGDIRAVVPERPLGDGYANGYGNSKWAGEVLLREAHELVGLPVAVFRSDMILAHTRYTGQLNVPDQFTRLVLSLLATGIAPKSFYQQGAAGERQRAHYDGIPVDFTAEAITTLGAEPSWFDGGAGFRSFDVFNPHHDGVGLDEFVDWLIEAGHPISRIDDHKEWFARFETAVRGLPEAQRQHSLLPLLRAYSFPHPPVDGSVYPTGKFQGAVKAAQVGSDHDVPHLGKALIVKYADDLKALGLL | – | accepted adipate as substrate | – | – | – |
| SEQ ID NO 7: Segniliparus rotundus carboxylate reductase (Genbank Accession No. ADG98140.1); in Example 2 the same label is printed for a ω-transaminase (protein, listed as Segniliparus rotundus) MTQSHTQGPQASAAHSRLARRAAELLATDPQAAATLPDPEVVRQATRPGLRLAERVDAILSGYADRPALGQRSFQTVKDPITGRSSVELLPTFDTITYRELRERATAIASDLAHHPQAPAKPGDFLASIGFISVDYVAIDIAGVFAGLTAVPLQTGATLATLTAITAETAPTLFAASIEHLPTAVDAVLATPSVRRLLVFDYRAGSDEDREAVEAAKRKIADAGSSVLVDVLDEVIARGKSAPKAPLPPATDAGDDSLSLLIYTSGSTGTPKGAMYPERNVAHFWGGVWAAAFDEDAAPPVPAINITFLPLSHVASRLSLMPTLARGGLMHFVAKSDLSTLFEDLKLARPTNLFLVPRVVEMLYQHYQSELDRRGVQDGTREAEAVKDDLRTGLLGGRILTAGFGSAPLSAELAGFIESLLQIHLVDGYGSTEAGPVWRDGYLVKPPVTDYKLIDVPELGYFSTDSPHPRGELAIKTQTILPGYYKRPETTAEVFDEDGFYLTGDVVAQIGPEQFAYVDRRKNVLKLSQGEFVTLAKLEAAYSSSPLVRQLFVYGSSERSYLLAVIVPTPDALKKFGVGEAAKAALGESLQKIARDEGLQSYEVPRDFIIETDPFTVENGLLSDARKSLRPKLKEHYGERLEAMYKELADGQANELRDIRRGVQQRPTLETVRRAAAAMLGASAAEIKPDAHFTDLGGDSLSALTFSNFLHDLFEVDVPVGVIVSAANTLGSVAEHIDAQLAGGRARPTFATVHGKGSTTIKASDLTLDKFIDEQTLEAAKHLPKPADPPRTVLLTGANGWLGRFLALEWLERLAPAGGKLITIVRGKDAAQAKARLDAAYESGDPKLAGHYQDLAATTLEVLAGDFSEPRLGLDEATWNRLADEVDFISHPGALVNHVLPYNQLFGPNVAGVAEIIKLAITTRIKPVTYLSTVAVAAGVEPSALDEDGDIRTVSAERSVDEGYANGYGNSKWGGEVLLREAHDRTGLPVRVFRSDMILAHQKYTGQVNATDQFTRLVQSLLATGLAPKSFYELDAQGNRQRAHYDGIPVDFTAESITTLGGDGLEGYRSYNVFNPHRDGVGLDEFVDWLIEAGHPITRIDDYDQWLSRFETSLRGLPESKRQASVLPLLHAFARPGPAVDGSPFRNTVFRTDVQKAKIGAEHDIPHLGKALVLKYADDIKQLGLL | – | accepted adipate as substrate | accepted 6-aminohexanote as substrate | accepted adipate semialdehyde as substrate | accepted adipate semialdehyde as substrate |
